Experimental data published in paper PMC6687201, “Atg11 tethers Atg9 vesicles to initiate selective autophagy” (PLoS Biology, 2019).
One block for each binder: values may come before it.

Key:
[1] = molecular target: T1, recombinant purified Atg11 (Atg11-His6) (yeast, UniProt Q12527 1-1178, Atto565 label in the GUV experiments); test: cross-linking; Sulfo-LC-SDA (spacer arm 12.5 Å) conjugated to primary amines of Atg32^SE, mixed with Atg11, 365 nm UV light for up to 15 min, SDS-PAGE; settings: both partners purified
T1 construct: N-terminal residual glycine-proline from PreScission protease digestion; Atg11, yeast; expressed from pCoofy37-Atg11; measured molecular weight 136 kDa; also called His-tagged Atg11; Atg11^Atto565; source: E. coli BL21 (DE3), coexpressed with chaperones from pG-KJE8, purified (Ni-NTA, PreScission digestion, gel filtration); not shown: His6, C-terminal, kept
T1 sequence: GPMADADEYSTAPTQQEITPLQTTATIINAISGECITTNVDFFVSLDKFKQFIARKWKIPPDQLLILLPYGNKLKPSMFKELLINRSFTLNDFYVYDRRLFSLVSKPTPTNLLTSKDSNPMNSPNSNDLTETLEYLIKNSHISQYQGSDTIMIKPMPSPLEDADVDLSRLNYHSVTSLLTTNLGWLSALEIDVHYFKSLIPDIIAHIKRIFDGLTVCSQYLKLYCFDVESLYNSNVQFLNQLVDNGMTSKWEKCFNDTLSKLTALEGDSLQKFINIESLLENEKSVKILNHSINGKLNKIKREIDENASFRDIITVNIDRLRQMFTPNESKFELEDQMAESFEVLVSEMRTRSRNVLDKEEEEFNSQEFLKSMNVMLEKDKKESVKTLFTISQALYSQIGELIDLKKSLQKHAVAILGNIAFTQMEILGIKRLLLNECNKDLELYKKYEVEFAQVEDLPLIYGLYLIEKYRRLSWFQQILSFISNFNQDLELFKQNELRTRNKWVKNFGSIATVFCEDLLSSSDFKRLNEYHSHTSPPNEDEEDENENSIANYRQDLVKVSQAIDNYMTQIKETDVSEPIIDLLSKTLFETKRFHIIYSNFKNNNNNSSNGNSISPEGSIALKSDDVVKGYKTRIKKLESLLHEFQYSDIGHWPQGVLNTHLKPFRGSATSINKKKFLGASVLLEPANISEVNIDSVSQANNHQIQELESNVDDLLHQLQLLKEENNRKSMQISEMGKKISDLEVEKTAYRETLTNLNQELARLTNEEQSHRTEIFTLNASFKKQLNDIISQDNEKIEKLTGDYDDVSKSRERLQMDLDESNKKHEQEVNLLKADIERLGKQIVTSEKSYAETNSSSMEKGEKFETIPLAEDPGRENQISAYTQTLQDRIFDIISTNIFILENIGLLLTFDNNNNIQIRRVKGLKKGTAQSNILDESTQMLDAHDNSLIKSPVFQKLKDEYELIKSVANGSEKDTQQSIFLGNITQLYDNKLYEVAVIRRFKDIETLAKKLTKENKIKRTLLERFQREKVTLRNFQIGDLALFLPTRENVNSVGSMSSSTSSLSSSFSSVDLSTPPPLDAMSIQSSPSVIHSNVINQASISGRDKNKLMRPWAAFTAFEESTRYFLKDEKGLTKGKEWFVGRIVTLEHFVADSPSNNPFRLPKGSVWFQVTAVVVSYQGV

[2] = molecular target: the molecule itself; test: SEC; purified Atg11^ΔC on a Superose 6 column
[3] = molecular target: T2, myc-tagged full length Atg11 (S. cerevisiae, UniProt Q12527 1-1178); test: co-IP; IP of myc-tagged Atg11 (anti-myc, Protein A magnetic beads), co-IP of HA-tagged Atg9; lysates of WT, atg13Δ, atg17Δ, atg29Δ and atg31Δ cells, log phase and starved; 25 mM Tris-HCl pH 7.2, 150 mM NaCl, 0.2% NP-40; settings: partners not purified
T2 construct: Atg11, scaffolding protein of selective autophagy, yeast; also called Atg11-myc; myc-Atg11; source: yeast cells expressing myc-tagged Atg11, in lysate
T2 sequence (looked up): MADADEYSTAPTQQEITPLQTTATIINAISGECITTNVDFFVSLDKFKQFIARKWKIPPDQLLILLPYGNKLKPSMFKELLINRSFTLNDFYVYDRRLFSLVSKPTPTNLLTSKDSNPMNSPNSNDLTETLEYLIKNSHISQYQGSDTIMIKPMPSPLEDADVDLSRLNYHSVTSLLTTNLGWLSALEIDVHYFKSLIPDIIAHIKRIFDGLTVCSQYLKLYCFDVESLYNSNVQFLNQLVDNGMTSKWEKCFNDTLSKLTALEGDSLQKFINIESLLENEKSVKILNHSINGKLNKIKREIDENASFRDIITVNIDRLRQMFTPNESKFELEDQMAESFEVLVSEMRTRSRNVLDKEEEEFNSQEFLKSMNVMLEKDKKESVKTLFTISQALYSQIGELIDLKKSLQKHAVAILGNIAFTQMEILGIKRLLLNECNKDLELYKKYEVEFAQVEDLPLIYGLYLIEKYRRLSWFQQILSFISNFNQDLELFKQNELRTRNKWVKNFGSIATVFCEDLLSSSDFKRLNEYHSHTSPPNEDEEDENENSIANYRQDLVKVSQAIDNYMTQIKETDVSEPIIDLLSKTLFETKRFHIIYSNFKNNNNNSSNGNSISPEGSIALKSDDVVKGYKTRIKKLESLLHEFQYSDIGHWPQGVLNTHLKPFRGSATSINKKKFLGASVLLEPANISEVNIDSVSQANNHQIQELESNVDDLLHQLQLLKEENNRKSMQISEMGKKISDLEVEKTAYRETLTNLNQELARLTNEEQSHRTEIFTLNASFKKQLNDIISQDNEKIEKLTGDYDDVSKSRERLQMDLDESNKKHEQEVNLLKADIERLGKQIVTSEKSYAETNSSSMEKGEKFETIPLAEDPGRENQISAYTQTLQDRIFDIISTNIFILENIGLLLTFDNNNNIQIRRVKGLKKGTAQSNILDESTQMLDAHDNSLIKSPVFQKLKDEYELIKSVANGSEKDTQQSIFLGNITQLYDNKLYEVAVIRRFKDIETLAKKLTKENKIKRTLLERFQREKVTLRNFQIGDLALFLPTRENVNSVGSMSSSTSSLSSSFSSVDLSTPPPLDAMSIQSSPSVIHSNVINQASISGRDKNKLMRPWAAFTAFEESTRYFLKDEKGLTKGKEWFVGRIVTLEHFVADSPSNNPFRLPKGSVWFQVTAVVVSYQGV

binding result [1]: binds
B1: Atg32^SE (Atg32^1-376 with the phosphomimetic mutation S114E) (domain or fragment, yeast, UniProt P40458 1-376, looked up)
chain: MVLEYQQREGKGSSSKSMPPDSSSTTIHTCSEAQTGEDKGLLDPHLSVLELLSKTGHSPSPMGQNLVTSIDISGNHNVNDSISGSWQAIQPLDLGASFIPERCSSQTTNGSILESSDTSEEEQELLQAPAADIINIIKQGQEGANVVSPSHPFKQLQKIISLPLPGKEKTPFNEQDDDGDEDEAFEEDSVTITKSLTSSTNSFVMPKLSLTQKNPVFRLLILGRTGSSFYQSIPKEYQSLFELPKYHDSATFPQYTGIVIIFQELREMVSLLNRIVQYSQGKPVIPICQPGQVIQVKNVLKSFLRNKLVKLLFPPVVVTNKRDLKKMFQRLQDLSLEYGEDVNEEDNDDEAIHTKSRSYCRNKKAENSKKKSPKSN
modifications: PacificBlue label in the GUV experiment; Sulfo-LC-SDA conjugated to primary amines in the cross-linking experiment
notes: Atg32, mitochondrial cargo receptor, yeast; N-terminal cytoplasmic domain, residues 1-376; also called Atg32^1-376,SE; Sulfo-LC-Atg32^SE

B2: recombinant purified Atg11^ΔC (residues 1-667) (domain or fragment, yeast, UniProt Q12527 1-667, looked up)
chain: MADADEYSTAPTQQEITPLQTTATIINAISGECITTNVDFFVSLDKFKQFIARKWKIPPDQLLILLPYGNKLKPSMFKELLINRSFTLNDFYVYDRRLFSLVSKPTPTNLLTSKDSNPMNSPNSNDLTETLEYLIKNSHISQYQGSDTIMIKPMPSPLEDADVDLSRLNYHSVTSLLTTNLGWLSALEIDVHYFKSLIPDIIAHIKRIFDGLTVCSQYLKLYCFDVESLYNSNVQFLNQLVDNGMTSKWEKCFNDTLSKLTALEGDSLQKFINIESLLENEKSVKILNHSINGKLNKIKREIDENASFRDIITVNIDRLRQMFTPNESKFELEDQMAESFEVLVSEMRTRSRNVLDKEEEEFNSQEFLKSMNVMLEKDKKESVKTLFTISQALYSQIGELIDLKKSLQKHAVAILGNIAFTQMEILGIKRLLLNECNKDLELYKKYEVEFAQVEDLPLIYGLYLIEKYRRLSWFQQILSFISNFNQDLELFKQNELRTRNKWVKNFGSIATVFCEDLLSSSDFKRLNEYHSHTSPPNEDEEDENENSIANYRQDLVKVSQAIDNYMTQIKETDVSEPIIDLLSKTLFETKRFHIIYSNFKNNNNNSSNGNSISPEGSIALKSDDVVKGYKTRIKKLESLLHEFQYSDIGHWPQGVLNTHLKPFRGSA
notes: Atg11, yeast, N-terminal fragment, residues 1-667; expressed from pCoofy37-Atg11^ΔC; molecular weight 78.2 kDa; Made from the same vector as full-length Atg11, so it may also carry a C-terminal His6 tag and an N-terminal Gly-Pro; also called purified Atg17-like domain of Atg11; source: E. coli BL21 (DE3), coexpressed with chaperones from pG-KJE8, purified
stoichiometry N [2]: 2

fold binding in atg17Δ against wild-type cells, upon starvation [3]: 4.1 fold
B3: HA-tagged Atg9 (natural protein, S. cerevisiae, UniProt Q12142 1-997, looked up)
chain: MERDEYQLPNSHGKNTFLSRIFGLQSDEVNPSLNSQEMSNFPLPDIERGSSLLHSTNDSREDVDENDLRVPESDQGTSTEEEDEVDEEQVQAYAPQISDGLDGDHQLNSVTSKENVLETEKSNLERLVEGSTDDSVPKVGQLSSEEEEDNEFINNDGFDDDTPLFQKSKIHEFSSKKSNTIEDGKRPLFFRHILQNNRPQRDTQKLFTSSNAIHHDKDKSANNGPRNINGNQKHGTKYFGSATQPRFTGSPLNNTNRFTKLFPLRKPNLLSNISVLNNTPEDRINTLSVKERALWKWANVENLDIFLQDVYNYYLGNGFYCIILEKILNICTLLFVVFVSTYMGHCVDYSKLPTSHRVSDIIIDKCYSNSITGFTKFFLWMFYFFVILKIVQLYFDVQKLSELQNFYKYLLNISDDELQTLPWQNVIQQLMYLKDQNAMTANVVEVKAKNRIDAHDVANRIMRRENYLIALYNSDILNLSLPIPLFRTNVLTKTLEWNINLCVMGFVFNESGFIKQSILKPSQREFTREELQKRFMLAGFLNIILAPFLVTYFVLLYFFRYFNEYKTSPGSIGARQYTPIAEWKFREYNELYHIFKKRISLSTTLANKYVDQFPKEKTNLFLKFVSFICGSFVAILAFLTVFDPENFLNFEITSDRSVIFYITILGAIWSVSRNTITQEYHVFDPEETLKELYEYTHYLPKEWEGRYHKEEIKLEFCKLYNLRIVILLRELTSLMITPFVLWFSLPSSAGRIVDFFRENSEYVDGLGYVCKYAMFNMKNIDGEDTHSMDEDSLTKKIAVNGSHTLNSKRRSKFTAEDHSDKDLANNKMLQSYVYFMDDYSNSENLTGKYQLPAKKGYPNNEGDSFLNNKYSWRKQFQPGQKPELFRIGKHALGPGHNISPAIYSTRNPGKNWDNNNNGDDIKNGTNNATAKNDDNNGNNDHEYVLTESFLDSGAFPNHDVIDHNKMLNSNYNGNGILNKGGVLGLVKEYYKKSDVGR
notes: Atg9, transmembrane autophagy protein, yeast; also called HA-Atg9; source: yeast cells expressing HA-tagged Atg9, in lysate
